Patent publication US8822171

Test system: recombinant human tau, largest isoform (2N4R)

Substance	New sites identified in recombinant tau (phosphorylated residues, numbered on 441-residue human tau)	in vitro phosphorylation of recombinant tau, sites identified by LC/MS/MS
glycogen synthase kinase 3β (GSK-3β)	149, 220, 237, 241, 245, 258, 285, 289, 305, 352, 373, (409/412/413/414/416, 2 sites of which 1 or 2 are new)	GSK-3 found 12 new sites making a total of 38 in all.
casein kinase 2 (CK2)	(52/56), 199, 386, 400, (412/413/414/416, 1 site)	CK2 found 5 new sites making a total of 8 in all.
cyclic AMP-dependent protein kinase (PKA)	210, (217/220), 258, 352, (412/413)	PKA found 5 new sites making a total of 24 in all.
